Source: article PMC2622761

Biological target: GST-PfMTIP (P. falciparum (3D7)) (UniProt Q8I4W8)
Assay: pull-down; GST or GST-MTIP coupled to glutathione-Sepharose 4B; 25 µg His-tagged Rab protein incubated overnight at 4°C; four washes in PBS (0.1% Triton X-100); detected by anti-His immunoblot

Substance: PfRab11A-His (natural protein)
- percent of input detected in the pull-down: 5%
